Substitutions are numbered along the chain they refer to. Blank lines part the entries; values can stand above or below the binder they belong to.
Legend:
[1] = biological target: T1, human CD33 Fc fusion protein (human, UniProt P20138 18-259); test: RBC adhesion to plate-bound CD33-Fc; antibody 1.0 ug/ml;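 also: red blood cells adhering to plate-coated CD33-Fc after 1 h antibody pretreatment, then 1 h at room temperature, bound cells read as peroxidase activity after lysis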
T1 construct: also called hCD33-Fc; human CD33/Fc chimera (R&D Systems)
Experimental: Briefly, 5 ug/ml CD33-Fc was coated overnight at RT in 96 well Immunolon plates, then washed with PBS, blocked for one hour with binding buffer (PBS containing %0.25 BSA 1 mM CaCl₂). CD33 antibodies (0.5 ug/ml or 1.0 ug/ml) or Fabs (25 ug/ml) were bound for one hour at RT with gentle rocking. After removal of unbound antibody, red blood cells were added to each well at a concentration of 3.0×10⁶ cells per ml and incubated at RT for one hour. Unbound RBCs were then carefully washed off 3× with PBS, and water was added to each well for hypotonic lysis of bound RBCs. The plate was transferred to −80° C. for 10 minutes, followed by 37° C. for 15 minutes. Bound RBCs were detected by peroxidase activity, followed by 2N sulfuric acid to stop the reaction.

human CD33 [2] = biological target: T2, human CD33 (human, UniProt P20138 18-364); test: flow cytometry, human primary macrophages;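 also: binding of CD33 antibodies at 10 µg/ml to human primary macrophages, 1 h on ice, detected with PE-labelled secondary antibody by flow cytometry, reported as MFI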
T2 construct: CD33 on human primary dendritic cells, macrophages, monocytes and T cells and on CHO cells expressing recombinant human CD33; also called Siglec-3; hCD33

human CD33 [3] = biological target: T2, human CD33; test: cell-based or functional assay
[4] = biological target: T3, human monomeric His tagged CD33 protein (human, UniProt P20138 18-259); test: ForteBio BLI or MSD-SET
T3 construct: also called hCD33-His

[5] = biological target: T1, human CD33 Fc fusion protein; test: ForteBio BLI or MSD-SET
human CD33 [6] = biological target: T2, human CD33; test: flow cytometry, human primary T cells;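 also: binding of anti-CD33 antibodies at 10 ug/ml to human primary T cells, 1 h on ice, detected with PE-labelled secondary antibody, read as flow cytometry MFI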
human CD33 [7] = biological target: T2, human CD33; test: flow cytometry, human primary dendritic cells;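 also: binding of anti-CD33 antibodies (10 ug/ml, 1 h on ice) to human primary dendritic cells, detected with a PE-labelled secondary antibody, reported as flow cytometry MFI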
[8] = biological target: T1, human CD33 Fc fusion protein; test: RBC adhesion to plate-bound CD33-Fc; antibody 0.5 ug/ml;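 also: Plate-coated CD33-Fc preincubated 1 h with antibody, then red blood cells added for 1 h at room temperature, adherent cells lysed and quantified via peroxidase activity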
[9] = biological target: T4, mouse CD33 Fc fusion protein (mouse, UniProt Q63994 18-240, limits assumed); test: ForteBio BLI or MSD-SET, IgG, avid;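 also: Anti-CD33 IgG affinity by BLI, IgG captured on AHQ sensors with antigen in solution and a one-to-one kinetic fit, or by MSD solution equilibrium titration with quadratic fit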
T4 construct: also called mCD33-Fc
T4 sequence: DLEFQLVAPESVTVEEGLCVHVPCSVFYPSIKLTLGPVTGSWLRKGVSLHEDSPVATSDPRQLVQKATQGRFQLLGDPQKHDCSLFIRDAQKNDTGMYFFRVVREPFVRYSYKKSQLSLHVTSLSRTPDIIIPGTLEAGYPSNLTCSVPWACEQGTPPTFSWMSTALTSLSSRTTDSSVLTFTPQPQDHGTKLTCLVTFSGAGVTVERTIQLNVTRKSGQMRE
Experimental: The binding affinity of each anti-CD33 antibody was determined by measuring their KD by ForteBio or MSD-SET. […] Briefly, ForteBio affinity measurements were performed by loading IgGs on-line onto AHQ sensors. Sensors were equilibrated off-line in assay buffer for 30 min and then monitored on-line for 60 seconds for baseline establishment. Sensors with loaded IgGs were exposed to 100 nM antigen for 5 minutes, then transferred to assay buffer for 5 min for off-rate measurement. Kinetics were analyzed using the 1:1 binding model.
Solution equilibrium titrations (SET) were performed in PBS+0.1% IgG-Free BSA (PBSF) with antigen held constant at 50 pM and incubated with 3-to 5-fold serial dilutions of antibody starting at 10 nM. Antibodies (20 nM in PBS) were coated onto standard bind MSD-ECL plates overnight at 4° C. or at room temperature for 30 min. Plates were then blocked for 30 min with shaking at 700 rpm, followed by three washes with wash buffer (PBSF+0.05% Tween 20). SET samples were applied and incubated on the plates for 150s with shaking at 700 rpm followed by one wash. Antigen captured on a plate was detected with 250 ng/mL sulfotag-labeled streptavidin in PBSF by incubation on the plate for 3 min. The plates were washed three times with wash buffer and then read on the MSD Sector Imager 2400 instrument using 1× Read Buffer T with surfactant. The percent free antigen was plotted as a function of titrated antibody in Prism and fit to a quadratic equation to extract the KD. To improve throughput, liquid handling robots were used throughout MSD-SET experiments, including SET sample preparation.

human CD33 [10] = biological target: T2, human CD33; test: flow cytometry, human primary monocytes; parameters: reference not given here;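 also: binding of anti-CD33 antibodies at 10 ug/ml to human primary monocytes, 1 h on ice, detected by PE-labelled secondary antibody, flow cytometry readout as mean fluorescence intensity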

T2 sequence (P20138 18-364): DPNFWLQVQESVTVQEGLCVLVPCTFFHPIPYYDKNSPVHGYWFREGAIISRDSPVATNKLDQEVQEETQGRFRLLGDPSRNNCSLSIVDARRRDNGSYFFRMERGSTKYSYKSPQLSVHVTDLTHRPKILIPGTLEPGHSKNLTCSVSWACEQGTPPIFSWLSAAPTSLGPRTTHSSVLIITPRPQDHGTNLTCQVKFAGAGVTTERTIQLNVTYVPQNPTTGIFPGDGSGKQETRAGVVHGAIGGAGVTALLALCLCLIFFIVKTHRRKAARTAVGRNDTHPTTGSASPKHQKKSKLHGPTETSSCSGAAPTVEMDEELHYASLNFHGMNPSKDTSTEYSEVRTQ
T1 sequence (P20138 18-259 limits assumed): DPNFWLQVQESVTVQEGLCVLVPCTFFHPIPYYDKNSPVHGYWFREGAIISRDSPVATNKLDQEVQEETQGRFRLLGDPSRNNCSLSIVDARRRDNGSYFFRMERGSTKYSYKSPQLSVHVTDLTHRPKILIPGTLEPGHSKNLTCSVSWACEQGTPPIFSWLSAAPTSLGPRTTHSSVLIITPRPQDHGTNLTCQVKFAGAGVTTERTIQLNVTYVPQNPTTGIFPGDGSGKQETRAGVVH
T3 sequence (P20138 18-259 limits assumed): as above

Percent RBC Binding to CD33 [1]: 95.3% | Macrophage MFI (human CD33 [2]): 496 | Percent CD33 Surface Expression, DC % CD33 (human CD33 [3]): 87% | Percent CD33 Surface Expression, Monocyte % CD33 (human CD33 [3]): 85.3% | binding result [4]: no binding (tested: 100 nM) | binding result [5]: no binding (tested: 100 nM) | T cell MFI (human CD33 [6]): 112 | DC MFI (human CD33 [7]): 307 | Percent RBC Binding to CD33 [8]: 118% | Kd [9]: 0.445 nM | Monocyte MFI (human CD33 [10]): 54
B1: C-50 (antibody, V domains shown)
VH: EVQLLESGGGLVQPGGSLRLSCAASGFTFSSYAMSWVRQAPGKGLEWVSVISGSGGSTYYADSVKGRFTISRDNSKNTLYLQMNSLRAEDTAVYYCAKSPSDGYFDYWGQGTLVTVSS
VL: DIQMTQSPSSVSASVGDRVTITCRASQGISSWLAWYQQKPGKAPKLLIYAASSLQSGVPSRFSGSGSGTDFTLTISSLQPEDFATYYCQQAFDFPITFGGGTKVEIK
notes: human IgG1

Percent RBC Binding to CD33 [1]: 129% | binding result [4]: no binding (tested: 100 nM) | binding result [5]: no binding (tested: 100 nM) | Percent RBC Binding to CD33 [8]: 96.6% | Kd [9]: 2.72 nM
B2: C-51 (antibody, V domains shown)
VH: QLQLQESGPGLVKPSETLSLTCTVSGGSISSSSYYWGWIRQPPGKGLEWIGSIYYSGSTYYNPSLKSRVTISVDTSKNQFSLKLSSVTAADTAVYYCARGAPHDYGGGVGWFDPWGQGTTVTVSS
VL: B1 VL with S53N, A91S, F92R, D93V, I96W
notes: human IgG1

Reference: patent US20220281976A1 (Alector, published 2022)
